Source: publication PMC5577365 (Nature chemical biology, 2017)
Ends that are not written are not given here.

How the values were obtained:
[1] = molecular target: Abl1-Pmp52 (ABL1 SH3 domain with Pmp at position 52) (human, 4-phosphomethyl-L-phenylalanine (Pmp) at position 52); assay: fluorescence polarisation
[2] = molecular target: wild-type Abl1 (ABL1 SH3 domain) (human, UniProt P00519 61-121); assay: fluorescence polarisation
Chain of wild-type Abl1 (ABL1 SH3 domain) (P00519 whole entry, looked up, the tested form may be a part): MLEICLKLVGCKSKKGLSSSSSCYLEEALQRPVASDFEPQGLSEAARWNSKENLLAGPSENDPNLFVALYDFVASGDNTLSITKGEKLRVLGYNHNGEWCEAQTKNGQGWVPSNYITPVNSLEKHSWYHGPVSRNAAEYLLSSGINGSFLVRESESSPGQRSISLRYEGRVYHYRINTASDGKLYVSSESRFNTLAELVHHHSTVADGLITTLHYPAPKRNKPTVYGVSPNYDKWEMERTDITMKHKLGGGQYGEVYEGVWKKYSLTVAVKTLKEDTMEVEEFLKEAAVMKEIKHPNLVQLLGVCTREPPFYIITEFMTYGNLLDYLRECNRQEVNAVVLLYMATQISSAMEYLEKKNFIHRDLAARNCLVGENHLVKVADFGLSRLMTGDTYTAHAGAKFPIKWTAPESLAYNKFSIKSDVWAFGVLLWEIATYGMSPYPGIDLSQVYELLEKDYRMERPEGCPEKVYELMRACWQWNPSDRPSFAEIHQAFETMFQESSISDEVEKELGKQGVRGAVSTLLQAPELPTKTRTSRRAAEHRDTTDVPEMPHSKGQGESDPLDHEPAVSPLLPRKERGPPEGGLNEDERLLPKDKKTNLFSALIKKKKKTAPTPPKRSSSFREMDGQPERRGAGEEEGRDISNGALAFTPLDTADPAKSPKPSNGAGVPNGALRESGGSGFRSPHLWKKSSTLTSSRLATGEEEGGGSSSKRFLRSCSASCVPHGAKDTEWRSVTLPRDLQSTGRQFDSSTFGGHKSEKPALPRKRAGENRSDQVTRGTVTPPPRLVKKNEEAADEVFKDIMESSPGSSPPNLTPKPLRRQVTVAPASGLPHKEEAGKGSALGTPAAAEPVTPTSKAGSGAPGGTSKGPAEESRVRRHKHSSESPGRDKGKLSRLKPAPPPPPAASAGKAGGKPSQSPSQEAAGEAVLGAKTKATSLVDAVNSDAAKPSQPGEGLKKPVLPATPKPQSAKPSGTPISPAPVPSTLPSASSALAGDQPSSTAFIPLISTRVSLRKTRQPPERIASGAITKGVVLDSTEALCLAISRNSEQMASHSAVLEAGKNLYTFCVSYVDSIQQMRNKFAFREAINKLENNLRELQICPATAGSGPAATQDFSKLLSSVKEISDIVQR

Binder: PPAYPPPPVP (also: FAM label, position not given here) [3BP2 peptide (FAM labeled)]
- Kd [1]: 5 ± 0.8 µM
- Kd [2]: 5 ± 0.8 µM
